Assay results: patent US20210024639A1 (AGOMAB THERAPEUTICS, published 2021)
Numbering of substitutions follows the chain as printed. Each block holds one binder with its values, some of them ahead of it.

Experiments:
[1] = target: T1, mouse MET extracellular domain (ECD) (mouse, UniProt P16056 25-931); assay: ELISA, periplasmic Fab on MET ECD
T1 construct: range 1-931; recombinant ECD; also called mMET; mouse MET ECD
Method: (§1) Fab-expressing phages from the libraries described above were produced according to standard phage display protocols. For selection, phages were first adsorbed to immobilized recombinant human MET ECD, washed, and then eluted using trypsin. After two cycles of selection with human MET ECD, two other cycles were performed in the same fashion using mouse MET ECD. In parallel, we also selected phages alternating a human MET ECD cycle with a mouse MET ECD cycle, for a total of four cycles. Phages selected by the two approaches were pooled together and then used to infect TG1 E. coli. Individual colonies were isolated and secretion of Fabs was induced using IPTG (Fermentas). The Fab-containing periplasmic fraction of bacteria was collected and tested for its ability to bind human and mouse MET ECD by Surface Plasmon Resonance (SPR). Human or mouse MET ECD was immobilized on a CM-5 chip using amine coupling in sodium acetate buffer (GE Healthcare). The Fab-containing periplasmic extracts were loaded into a BIACORE 3000 apparatus (GE Healthcare) with a flow rate of 30 μl/min. The Fab off-rates (koff) were measured over a two minute period. Binding of Fabs to human and mouse MET was further characterized by ELISA using MET ECD in solid phase and periplasmic crude extract in solution.
(§2) TABLE 7 Fabs binding to both human MET (hMET) and mouse MET (mMET). Fabs are grouped in families based on their VH CDR3 sequence. Binding of Fabs to human and mouse MET ECD was determined by Surface Plasmon Resonance (SPR) and by ELISA. SPR values represent the koff (s⁻¹). ELISA values represent the Optical Density (OD) at 450 nm (AU, arbitrary units). Both SPR and ELISA were performed using crude periplasmic extracts. Fab concentration in the extract was not determined. Values are the mean of three independent measurements.

[2] = target: T2, human MET extracellular domain (ECD) (human, UniProt P08581 25-932); assay: ELISA, periplasmic Fab on MET ECD
T2 construct: range 1-932; recombinant ECD; also called hMET; human MET ECD
Method: as §1, §2

[3] = target: T3, native human MET on living human cells (human, UniProt P08581 25-1390); assay: flow cytometry, A549 cells
T3 construct: whole, on cells; also called Human cells (A549); HPAF-II
Method: (§3) We also analysed whether chimeric anti-MET antibodies bound to native human and mouse MET in living cells. […] Antibody binding to cells was analysed by flow cytometry using phycoerythrin-conjugated anti-human IgG1 antibodies (eBioscience) and a CyAn ADP analyser (Beckman Coulter). As a positive control for human MET binding, we used a commercial mouse anti-human MET antibody (R&D Systems) and phycoerythrin-conjugated anti-mouse IgG1 antibodies (eBioscience). As a positive control for mouse MET binding we used a commercial goat anti-mouse MET antibody (R&D Systems) and phycoerythrin-conjugated anti-goat IgG1 antibodies (eBioscience). […] Consistent with the data obtained in ELISA, maximal binding (EMAX) varied depending on antibody, but was similar in human and mouse cells.

[4] = target: T4, native mouse MET on living mouse cells (mouse, UniProt P16056 25-1379); assay: cell-based or functional assay
[5] = target: T3, native human MET on living human cells; assay: cell-based or functional assay
[6] = target: T4, native mouse MET on living mouse cells; assay: flow cytometry, MLP29 cells
Method: as §3

[7] = target: T4, native mouse MET on living mouse cells; assay: cell-based or functional assay; remark: listed apart in the source
[8] = target: T3, native human MET on living human cells; assay: cell-based or functional assay; remark: listed apart in the source
[9] = target: T5, mouse MET-Fc chimeric protein (R&D Systems) (mouse, UniProt P16056 25-929, limits assumed); assay: competition ELISA, mMET-Fc in solid phase, competitor 0.3 nM biotinylated mHGF
T5 construct: bought (R&D Systems); also called mMET; not shown: Fc
Method: (§4) To investigate along this line, we tested the competition between mAbs and HGF by ELISA. Recombinant human and mouse HGF (R&D Systems) were biotinylated at the N-terminus using NHS-LC-biotin (Thermo Scientific). MET-Fc protein, either human or mouse (R&D Systems), was immobilized in solid phase and then exposed to 0.3 nM biotinylated HGF, either human or mouse, in the presence of increasing concentrations of antibodies (0-120 nM).
(§5) A MET-Fc chimeric protein (either human or mouse) was immobilized in solid phase and exposed to a fixed concentration of biotinylated HGF (either human or mouse), in the presence of increasing concentrations of antibodies. […] Antibody-HGF competition is expressed as IC₅₀ (the concentration that achieves 50% competition) and IMAX (the maximum % competition reached at saturation).

[10] = target: T6, human MET-Fc chimeric protein (R&D Systems) (human, UniProt P08581 25-932); assay: competition ELISA, hMET-Fc in solid phase, competitor 0.3 nM biotinylated hHGF
T6 construct: extracellular domain; bought (R&D Systems); also called hMET; not shown: Fc portion of human IgG1
Method: as §4, §5

T2 sequence (P08581 25-932 limits assumed, form in doubt): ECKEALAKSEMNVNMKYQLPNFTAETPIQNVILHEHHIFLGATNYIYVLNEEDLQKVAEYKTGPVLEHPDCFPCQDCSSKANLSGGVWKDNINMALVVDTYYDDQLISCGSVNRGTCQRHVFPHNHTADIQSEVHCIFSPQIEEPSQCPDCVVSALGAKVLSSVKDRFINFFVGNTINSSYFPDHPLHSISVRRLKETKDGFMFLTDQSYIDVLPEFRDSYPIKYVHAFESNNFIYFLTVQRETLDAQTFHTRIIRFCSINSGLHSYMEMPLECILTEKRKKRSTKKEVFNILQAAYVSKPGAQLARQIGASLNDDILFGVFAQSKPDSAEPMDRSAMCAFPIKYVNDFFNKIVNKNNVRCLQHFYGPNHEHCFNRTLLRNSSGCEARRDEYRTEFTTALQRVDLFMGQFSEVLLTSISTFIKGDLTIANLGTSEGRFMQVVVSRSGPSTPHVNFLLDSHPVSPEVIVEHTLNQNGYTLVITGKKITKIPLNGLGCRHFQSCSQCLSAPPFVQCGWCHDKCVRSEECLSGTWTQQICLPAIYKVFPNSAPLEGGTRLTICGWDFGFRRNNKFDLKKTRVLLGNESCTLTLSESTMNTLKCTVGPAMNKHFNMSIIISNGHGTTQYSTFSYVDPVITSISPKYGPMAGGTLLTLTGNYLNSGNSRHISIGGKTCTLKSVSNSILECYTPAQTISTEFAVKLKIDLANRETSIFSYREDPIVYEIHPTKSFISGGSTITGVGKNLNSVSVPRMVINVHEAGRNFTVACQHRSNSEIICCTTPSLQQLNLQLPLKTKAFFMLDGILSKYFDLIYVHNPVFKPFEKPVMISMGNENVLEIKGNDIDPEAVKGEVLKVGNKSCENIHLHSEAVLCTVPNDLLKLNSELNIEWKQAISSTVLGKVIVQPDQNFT
T3 sequence (P08581 25-1390): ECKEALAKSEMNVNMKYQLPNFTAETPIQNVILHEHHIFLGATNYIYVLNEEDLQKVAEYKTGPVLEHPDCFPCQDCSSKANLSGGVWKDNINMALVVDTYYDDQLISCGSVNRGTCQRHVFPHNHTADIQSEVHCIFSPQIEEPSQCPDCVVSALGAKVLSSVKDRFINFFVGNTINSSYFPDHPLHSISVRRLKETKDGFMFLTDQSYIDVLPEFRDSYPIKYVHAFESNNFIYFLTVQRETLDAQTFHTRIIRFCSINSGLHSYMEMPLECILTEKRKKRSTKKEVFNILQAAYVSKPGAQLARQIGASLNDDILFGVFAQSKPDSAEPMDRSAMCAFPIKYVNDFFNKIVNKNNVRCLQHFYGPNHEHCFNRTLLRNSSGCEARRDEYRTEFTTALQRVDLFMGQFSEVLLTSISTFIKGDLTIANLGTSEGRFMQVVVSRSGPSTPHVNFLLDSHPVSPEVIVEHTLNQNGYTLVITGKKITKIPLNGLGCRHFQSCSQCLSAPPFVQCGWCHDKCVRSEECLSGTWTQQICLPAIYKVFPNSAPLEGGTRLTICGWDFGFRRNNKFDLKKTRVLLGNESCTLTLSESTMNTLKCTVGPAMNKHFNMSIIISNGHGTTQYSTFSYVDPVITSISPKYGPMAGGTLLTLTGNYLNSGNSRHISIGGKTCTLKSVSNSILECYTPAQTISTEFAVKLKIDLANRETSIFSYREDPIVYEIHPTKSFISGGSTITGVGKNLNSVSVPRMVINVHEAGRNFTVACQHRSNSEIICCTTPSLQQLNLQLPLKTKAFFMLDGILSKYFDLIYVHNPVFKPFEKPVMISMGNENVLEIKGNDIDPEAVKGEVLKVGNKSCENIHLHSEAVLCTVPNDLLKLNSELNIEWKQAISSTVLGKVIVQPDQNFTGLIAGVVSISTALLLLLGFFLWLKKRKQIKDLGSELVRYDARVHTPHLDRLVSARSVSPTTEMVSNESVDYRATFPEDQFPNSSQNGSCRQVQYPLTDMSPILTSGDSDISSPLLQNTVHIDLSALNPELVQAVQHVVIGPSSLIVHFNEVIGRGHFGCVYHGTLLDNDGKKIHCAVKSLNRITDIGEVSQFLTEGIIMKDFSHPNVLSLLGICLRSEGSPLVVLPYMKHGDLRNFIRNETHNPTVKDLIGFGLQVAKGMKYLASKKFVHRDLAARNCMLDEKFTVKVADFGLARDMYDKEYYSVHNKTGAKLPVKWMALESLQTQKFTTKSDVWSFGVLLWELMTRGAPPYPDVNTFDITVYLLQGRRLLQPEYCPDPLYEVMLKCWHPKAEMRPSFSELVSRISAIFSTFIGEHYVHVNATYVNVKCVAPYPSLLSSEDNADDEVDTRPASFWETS
T6 sequence (P08581 25-932, change not shown): as the sequence (P08581 25-932 limits assumed, form in doubt) above

ELISA OD450 [1]: 3.08 AU | ELISA OD450 [2]: 3.2 AU
B2: Fab 76G7 (Fab, V domains shown)
VH: QVQLVESGGNLVQPGGSLRLSCAASGFTFSNYYMSWVRQAPGKGLEWVSDIYSDGSTTWYSDSVKGRFTISRDNAKNTLSLQMNSLKSEDTAVYYCARVKIYPGGYDAWGQGTQVTVSS
VL: QAGLTQPPSVSGSPGKTVTISCAGNSSDVGYGNYVSWYQQFPGMAPKLLIYLVNKRASGITDRFSGSKSGNTASLTISGLQSEDEADYYCASYTGSNNIVFGGGTHLTVL
notes: llama Fab (VH-CH1, lambda VL-CL) with MYC flag, crude periplasmic extract

EMAX (% relative to control) [3]: 156% | cell scattering score, MLP29, 0.001 nM [4]: 0 score 0-4 | cell scattering score, MLP29, 0.004 nM [4]: 0 score 0-4 | cell scattering score, MLP29, 0.012 nM [4]: 0 score 0-4 | cell scattering score, MLP29, 0.037 nM [4]: 0 score 0-4 | cell scattering score, MLP29, 0.111 nM [4]: 0 score 0-4 | cell scattering score, MLP29, 0.333 nM [4]: 0 score 0-4 | cell scattering score, MLP29, 1.000 nM [4]: 1 score 0-4 | cell scattering score, MLP29, 3.000 nM [4]: 2 score 0-4 | cell scattering score, MLP29, 9.000 nM [4]: 3 score 0-4 | cell scattering score, HPAF-II, 0.001 nM [5]: 0 score 0-4 | cell scattering score, HPAF-II, 0.004 nM [5]: 0 score 0-4 | cell scattering score, HPAF-II, 0.012 nM [5]: 0 score 0-4 | cell scattering score, HPAF-II, 0.037 nM [5]: 0 score 0-4 | cell scattering score, HPAF-II, 0.111 nM [5]: 0 score 0-4 | cell scattering score, HPAF-II, 0.333 nM [5]: 0 score 0-4 | cell scattering score, HPAF-II, 1.000 nM [5]: 1 score 0-4 | cell scattering score, HPAF-II, 3.000 nM [5]: 2 score 0-4 | cell scattering score, HPAF-II, 9.000 nM [5]: 3 score 0-4 | EMAX (% relative to control) [6]: 172% | IMAX (maximum % competition) [9]: 72.8% | IMAX (maximum % competition) [10]: 77.3%
B8: chimeric llama-human IgG1 mAb 72F8 (antibody, V domains shown)
VH: ELQLVESGGGLVQPGGSLRLSCAASGFTFSNYVMSWVRQAPGKGLEWVSDTNSGGSTSYADSVKGRFTISRDNAKNTLYLQMNSLKPEDTALYYCARSFFYGMNYWGKGTQVTVSS
VL: QSALTQPPSLSASPGSSVRLTCTLSSGNNIGSYDISWYQQKAGSPPRYLLNYYTDSRKHQDSGVPSRFSGSKDASANAGLLLISGLQPEDEADYYCSAYKSGSYRWVFGGGTHVTVL
protection from staurosporine, viability EC50, MLP29 [7]: > 32 nM | protection from staurosporine, viability EMAX, MLP29 [7]: 43.8% | protection from staurosporine, viability EC50, MCF10A [8]: > 32 nM | protection from staurosporine, viability EMAX, MCF10A [8]: 35.8%

ELISA OD450 [1]: 3.7 AU | ELISA OD450 [2]: 3.7 AU
B10: Fab 76H10 (Fab, V domains shown)
VH: QLQLVESGGGLVQPGGSLRVSCTASGFTFNTYYMTWVRQAPGKGLEWVSDINSGGGTYYADSVKGRFTISRDNAKNTLYLQMNSLKPEDTALYYCVRVRIWPVGYDYWGQGTQVTVSS
VL: QAVVTQEPSLSVSPGGTVTLTCGLSSGSVTTSNYPGWFQQTPGQAPRTLIYNTNNRHSGVPSRFSGSISGNKAALTITGAQPEDEADYYCSLYTGSYTTVFGGGTHLTVL
notes: as for B2

ELISA OD450 [1]: 2.92 AU | ELISA OD450 [2]: 2.98 AU
B11: Fab 74C8 (Fab, V domains shown)
VH: EVQLVESGGGLVQPGGSLRLSCAASGFTFRNYHMSWVRQVPGKGFEWISDINSAGGSTYYADSVKGRFTISRDNAKNTLYLEMNSLKPEDTALYYCARVNVWGVNYWGKGTLVSVSS
VL: B10 VL with A2T, N55S, T94P, T99N
notes: as for B2

More lines, now with the values behind:

B1: Fab 71G2 (Fab, V domains shown)
VH: EVQLQESGGGLVQPGGSLRLSCAASGFTFSIYDMSWVRQAPGKGLEWVSTINSDGSSTSYVDSVKGRFTISRDNAKNTLYLQMNSLKPEDTAVYYCAKVYGSTWDVGPMGYGMDYWGKGTLVTVSS
VL: SSALTQPSALSVSLGQTARITCQGGSLGSSYAHWYQQKPGQAPVLVIYGDDSRPSGIPERFSGSSSGGTATLTISGAQAEDEDDYYCQSTDSSGNTVFGGGTRLTVL
notes: as for B2
ELISA OD450 [1]: 0.543 AU | ELISA OD450 [2]: 0.561 AU

B3: Fab 71D6 (Fab, V domains shown)
VH: ELQLVESGGGLVQPGGSLRLSCAASGFTFSSYGMSWVRQAPGKGLEWVSAINSYGGSTSYADSVKGRFTISRDNAKNTLYLQMNSLKPEDTAVYYCAKEVRADLSRYNDYESYDYWGQGTQVTVSS
VL: QPVLNQPSALSVTLGQTAKITCQGGSLGARYAHWYQQKPGQAPVLVIYDDDSRPSGIPERFSGSSSGGTATLTISGAQAEDEGDYYCQSADSSGSVFGGGTHLTVL
notes: as for B2
ELISA OD450 [1]: 3.07 AU | ELISA OD450 [2]: 3.26 AU

B4: Fab 71C3 (Fab, V domains shown)
VH: B3 VH with E1Q, Y32H, G33A, Y54G, V100L, A102F, S105A, N108T, S112A, Y113W
VL: SYELTQPSALSVTLGQTAKITCQGGSLGSSYAHWYQQKPGQAPVLVIYDDDSRPSGIPERFSGSSSGGTATLTISGAQAEDEGDYYCQSADSSGNAAVFGGGTHLTVL
notes: as for B2
ELISA OD450 [1]: 1.64 AU | ELISA OD450 [2]: 1.65 AU

B5: Fab 71D4 (Fab, V domains shown)
VH: B3 VH with S31G, A50D, Y54G, E99D, V100M, A102L, D103Y, S105A, S112A, Y113W
VL: B4 VL with Y2S, E3A
notes: as for B2
ELISA OD450 [1]: 0.307 AU | ELISA OD450 [2]: 0.311 AU

B6: Fab 71A3 (Fab, V domains shown)
VH: EVQLVESGGGLVQPGGSLRLSCAASGFSFKDYDITWVRQAPGKGLEWVSTITSRSGSTSYVDSVKGRFTISGDNAKNTLYLQMNSLKPEDTAVYYCAKVYATTWDVGPLGYGMDYWGKGTLVTVSS
VL: B4 VL
notes: as for B2
ELISA OD450 [1]: 0.524 AU | ELISA OD450 [2]: 0.581 AU

B7: Fab 71G3 (Fab, V domains shown)
VH: QVQLVESGGGLVQPGGSLRVSCAASGFTFSTYYMSWVRQAPGKGLEWVSDIRTDGGTYYADSVKGRFTMSRDNAKNTLYLQMNSLKPEDTALYYCARTRIFPSGYDYWGQGTQVTVSS
VL: QAVVTQEPSLSVSPGGTVTLTCGLSSGSVTTSNYPGWFQQTPGQAPRTLIYNTNSRHSGVPSRFSGSISGNKAALTIMGAQPEDEADYYCSLYPGSTTVFGGGTHLTVL
notes: as for B2
ELISA OD450 [1]: 3.44 AU | ELISA OD450 [2]: 3.46 AU

B9: Fab 72F8 (Fab, V domains shown)
VH: B8 VH
VL: B8 VL
notes: as for B2
ELISA OD450 [1]: 3.08 AU | ELISA OD450 [2]: 3.38 AU
